Results on 25 molecules are retold here after PMC12416549 (2024).

The chains are these.
T1: TNFR1 (Homo sapiens, UniProt P19438)
T1 chain: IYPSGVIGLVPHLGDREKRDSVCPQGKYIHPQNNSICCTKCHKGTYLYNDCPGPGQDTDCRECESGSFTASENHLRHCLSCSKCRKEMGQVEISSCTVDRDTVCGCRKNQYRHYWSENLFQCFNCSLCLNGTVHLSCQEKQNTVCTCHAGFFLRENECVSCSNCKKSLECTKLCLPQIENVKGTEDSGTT

B1: V102K (designed binder)
chain: SMEEEVEKAAKEYEKKKKEAIEKHLEKLKAKDKEAAERFLKELEEAAKEYAKDEAKTMSEEEAKRRAKKYKEKVLLSELSEEEQKEIKEAEEKLVRTILKYKEEAAK
B2: A36Y (designed binder)
chain: SMEEEVEKAAKEYEKKKKEAIEKHLEKLKAKDKEAYERFLKELEEAAKEYAKDEAKTMSEEEAKRRAKKYKEKVLLSELSEEEQKEIKEAEEKLVRTILKYVEEAAK
B3: L99Q (designed binder)
chain: SMEEEVEKAAKEYEKKKKEAIEKHLEKLKAKDKEAAERFLKELEEAAKEYAKDEAKTMSEEEAKRRAKKYKEKVLLSELSEEEQKEIKEAEEKLVRTIQKYVEEAAK
B4: L94N (designed binder)
chain: SMEEEVEKAAKEYEKKKKEAIEKHLEKLKAKDKEAAERFLKELEEAAKEYAKDEAKTMSEEEAKRRAKKYKEKVLLSELSEEEQKEIKEAEEKNVRTILKYVEEAAK
B5: M58S (designed binder)
chain: SMEEEVEKAAKEYEKKKKEAIEKHLEKLKAKDKEAAERFLKELEEAAKEYAKDEAKTSSEEEAKRRAKKYKEKVLLSELSEEEQKEIKEAEEKLVRTILKYVEEAAK
B6: K23G (designed binder)
chain: SMEEEVEKAAKEYEKKKKEAIEGHLEKLKAKDKEAAERFLKELEEAAKEYAKDEAKTMSEEEAKRRAKKYKEKVLLSELSEEEQKEIKEAEEKLVRTILKYVEEAAK
B7: K56W (designed binder)
chain: SMEEEVEKAAKEYEKKKKEAIEKHLEKLKAKDKEAAERFLKELEEAAKEYAKDEAWTMSEEEAKRRAKKYKEKVLLSELSEEEQKEIKEAEEKLVRTILKYVEEAAK
B8: R65I (designed binder)
chain: SMEEEVEKAAKEYEKKKKEAIEKHLEKLKAKDKEAAERFLKELEEAAKEYAKDEAKTMSEEEAKIRAKKYKEKVLLSELSEEEQKEIKEAEEKLVRTILKYVEEAAK
B9: V74I (designed binder)
chain: SMEEEVEKAAKEYEKKKKEAIEKHLEKLKAKDKEAAERFLKELEEAAKEYAKDEAKTMSEEEAKRRAKKYKEKILLSELSEEEQKEIKEAEEKLVRTILKYVEEAAK
B10: E22S (designed binder)
chain: SMEEEVEKAAKEYEKKKKEAISKHLEKLKAKDKEAAERFLKELEEAAKEYAKDEAKTMSEEEAKRRAKKYKEKVLLSELSEEEQKEIKEAEEKLVRTILKYVEEAAK
B11: K56R (designed binder)
chain: SMEEEVEKAAKEYEKKKKEAIEKHLEKLKAKDKEAAERFLKELEEAAKEYAKDEARTMSEEEAKRRAKKYKEKVLLSELSEEEQKEIKEAEEKLVRTILKYVEEAAK
B12: K56Q (designed binder)
chain: SMEEEVEKAAKEYEKKKKEAIEKHLEKLKAKDKEAAERFLKELEEAAKEYAKDEAQTMSEEEAKRRAKKYKEKVLLSELSEEEQKEIKEAEEKLVRTILKYVEEAAK
B13: K52Q (designed binder)
chain: SMEEEVEKAAKEYEKKKKEAIEKHLEKLKAKDKEAAERFLKELEEAAKEYAQDEAKTMSEEEAKRRAKKYKEKVLLSELSEEEQKEIKEAEEKLVRTILKYVEEAAK
B14: A67W (designed binder)
chain: SMEEEVEKAAKEYEKKKKEAIEKHLEKLKAKDKEAAERFLKELEEAAKEYAKDEAKTMSEEEAKRRWKKYKEKVLLSELSEEEQKEIKEAEEKLVRTILKYVEEAAK
B15: K85E (designed binder)
chain: SMEEEVEKAAKEYEKKKKEAIEKHLEKLKAKDKEAAERFLKELEEAAKEYAKDEAKTMSEEEAKRRAKKYKEKVLLSELSEEEQEEIKEAEEKLVRTILKYVEEAAK
B16: E91H (designed binder)
chain: SMEEEVEKAAKEYEKKKKEAIEKHLEKLKAKDKEAAERFLKELEEAAKEYAKDEAKTMSEEEAKRRAKKYKEKVLLSELSEEEQKEIKEAHEKLVRTILKYVEEAAK
B17: E26C (designed binder)
chain: SMEEEVEKAAKEYEKKKKEAIEKHLCKLKAKDKEAAERFLKELEEAAKEYAKDEAKTMSEEEAKRRAKKYKEKVLLSELSEEEQKEIKEAEEKLVRTILKYVEEAAK
B18: K69F (designed binder)
chain: SMEEEVEKAAKEYEKKKKEAIEKHLEKLKAKDKEAAERFLKELEEAAKEYAKDEAKTMSEEEAKRRAKFYKEKVLLSELSEEEQKEIKEAEEKLVRTILKYVEEAAK
B19: K107F (designed binder)
chain: SMEEEVEKAAKEYEKKKKEAIEKHLEKLKAKDKEAAERFLKELEEAAKEYAKDEAKTMSEEEAKRRAKKYKEKVLLSELSEEEQKEIKEAEEKLVRTILKYVEEAAF
B20: K73S (designed binder)
chain: SMEEEVEKAAKEYEKKKKEAIEKHLEKLKAKDKEAAERFLKELEEAAKEYAKDEAKTMSEEEAKRRAKKYKESVLLSELSEEEQKEIKEAEEKLVRTILKYVEEAAK
B21: T57E (designed binder)
chain: SMEEEVEKAAKEYEKKKKEAIEKHLEKLKAKDKEAAERFLKELEEAAKEYAKDEAKEMSEEEAKRRAKKYKEKVLLSELSEEEQKEIKEAEEKLVRTILKYVEEAAK
B22: L76H (designed binder)
chain: SMEEEVEKAAKEYEKKKKEAIEKHLEKLKAKDKEAAERFLKELEEAAKEYAKDEAKTMSEEEAKRRAKKYKEKVLHSELSEEEQKEIKEAEEKLVRTILKYVEEAAK
B23: L43P (designed binder)
chain: SMEEEVEKAAKEYEKKKKEAIEKHLEKLKAKDKEAAERFLKEPEEAAKEYAKDEAKTMSEEEAKRRAKKYKEKVLLSELSEEEQKEIKEAEEKLVRTILKYVEEAAK
B24: A47D (designed binder)
chain: SMEEEVEKAAKEYEKKKKEAIEKHLEKLKAKDKEAAERFLKELEEADKEYAKDEAKTMSEEEAKRRAKKYKEKVLLSELSEEEQKEIKEAEEKLVRTILKYVEEAAK
B25: K93N (designed binder)
chain: SMEEEVEKAAKEYEKKKKEAIEKHLEKLKAKDKEAAERFLKELEEAAKEYAKDEAKTMSEEEAKRRAKKYKEKVLLSELSEEEQKEIKEAEENLVRTILKYVEEAAK

The assay has as its target T1, TNFR1. As to the kind of experiment: yeast display SC50.
Consider B1, for which the “apparent Kd (screen)” value worked out at 1.27 nM. The same measure for B2: 0.539 nM; for B3: 11.4 nM. In the case of B4, the “apparent Kd (screen)” value stood at 20.2 nM. The value for B5 was 4.39 nM. The value for B6 was 0.446 nM; that for B7 was 11.4 nM. Consider B8, for which the “apparent Kd (screen)” value amounted to 1.4 nM.

B9: the “apparent Kd (screen)” value was 0.446 nM.

On to B10, for which the “apparent Kd (screen)” value came out at 0.539 nM. The value for B11 was 1.54 nM; that for B12 was 2.73 nM. The value for B13 was 0.718 nM.

With B14, the “apparent Kd (screen)” value is 10.4 nM. The value for B15 was 0.446 nM. The same measure for B16: 4.39 nM. Turning to B17, the “apparent Kd (screen)” value worked out at 0.49 nM. The same measure for B18: 0.869 nM; for B19: 3 nM; for B20: 9.41 nM. The same measure for B21: 3 nM. The value for B22 was 1.69 nM; that for B23 was 12.5 nM; that for B24 was 1.16 nM. For the molecule B25, the “apparent Kd (screen)” value is 1.27 nM.
